From PMC11232276

Assays:
[1] = molecular target: wildtype (WT) α-synuclein fibrils (human) (UniProt P37840); assay: SPR
[2] = molecular target: wildtype (WT) α-synuclein fibrils (human) (UniProt P37840); assay: native gel or EMSA
[3] = molecular target: wildtype (WT) α-synuclein fibrils (human) (UniProt P37840); assay: flow-induced dispersion analysis
[4] = molecular target: α-synuclein oligomers (human); assay: flow-induced dispersion analysis

| apparent KD, strong binding of the two-phase model [1] [nM] | apparent KD, weak binding of the two-phase model [1] [nM] | percent of soluble, unbound BRICHOS [2] [%] | Kd [3] [nM] | Kd [4] [nM] | Substance |
| --- | --- | --- | --- | --- | --- |
| 22 | 350000 | 90.6 |  |  | recombinant human (rh) Bri2 BRICHOS R221E monomer (from UniProt Q9Y287 113-231) (domain or fragment) |
|  |  |  | 2300 | 78.2 | BRICHOS-Alexa488 (rh Bri2 BRICHOS R221E labelled with Alexa-488) (from UniProt Q9Y287 113-231) (domain or fragment) |
